Publication PMC4852379

Columns and labels:
[1] = biological target: antibody 5J8, wild type (human IgG1 monoclonal antibody) (human); test: BLI
[2] = biological target: antibody 5J8, FA variant (Q295F/Y296A), EAS-stabilized (human); test: BLI

Substance	Kd [1]	Kd [2]
Fc gamma receptor IIa (FcγRIIa), recombinant (from UniProt P12318 34-217)	270 nM	–
Fc gamma receptor IIIa (FcγRIIIa), recombinant (from UniProt P08637 17-208)	–	1000 nM
